According to IntAct's records for PubMed 11880648:

B1: RNA polymerase sigma factor SigA (Mycobacterium tuberculosis (strain ATCC 25618 / P9WGI1 (parent)
chain: MAATKASTATDEPVKRTATKSPAASASGAKTGAKRTAAKSASGSPPAKRATKPAARSVKPASAPQDTTTSTIPKRKTRAAAKSAAAKAPSARGHATKPRAPKDAQHEAATDPEDALDSVEELDAEPDLDVEPGEDLDLDAADLNLDDLEDDVAPDADDDLDSGDDEDHEDLEAEAAVAPGQTADDDEEIAEPTEKDKASGDFVWDEDESEALRQARKDAELTASADSVRAYLKQIGKVALLNAEEEVELAKRIEAGLYATQLMTELSERGEKLPAAQRRDMMWICRDGDRAKNHLLEANLRLVVSLAKRYTGRGMAFLDLIQEGNLGLIRAVEKFDYTKGYKFSTYATWWIRQAITRAMADQARTIRIPVHMVEVINKLGRIQRELLQDLGREPTPEELAKEMDITPEKVLEIQQYAREPISLDQTIGDEGDSQLGDFIEDSEAVVAVDAVSFTLLQDQLQSVLDTLSEREAGVVRLRFGLTDGQPRTLDEIGQVYGVTRERIRQIESKTMSKLRHPSRSQVLRDYLD
partner: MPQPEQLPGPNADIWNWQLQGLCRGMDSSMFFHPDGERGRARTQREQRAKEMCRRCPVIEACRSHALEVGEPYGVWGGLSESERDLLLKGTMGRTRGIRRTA

Variants of: B1
Conditions: with whib3_myctu whiB3, P9WF41
For R515H, the “effect of a mutation on the interaction” value was “disrupting interaction strength”.
